# T1: His-PHGDH (UniProt O43175 1-533)
# T1 construct: also called PHGDH-F; full-length PHGDH; source: E. coli BL21 DE3, purified
# T1 sequence (looked up): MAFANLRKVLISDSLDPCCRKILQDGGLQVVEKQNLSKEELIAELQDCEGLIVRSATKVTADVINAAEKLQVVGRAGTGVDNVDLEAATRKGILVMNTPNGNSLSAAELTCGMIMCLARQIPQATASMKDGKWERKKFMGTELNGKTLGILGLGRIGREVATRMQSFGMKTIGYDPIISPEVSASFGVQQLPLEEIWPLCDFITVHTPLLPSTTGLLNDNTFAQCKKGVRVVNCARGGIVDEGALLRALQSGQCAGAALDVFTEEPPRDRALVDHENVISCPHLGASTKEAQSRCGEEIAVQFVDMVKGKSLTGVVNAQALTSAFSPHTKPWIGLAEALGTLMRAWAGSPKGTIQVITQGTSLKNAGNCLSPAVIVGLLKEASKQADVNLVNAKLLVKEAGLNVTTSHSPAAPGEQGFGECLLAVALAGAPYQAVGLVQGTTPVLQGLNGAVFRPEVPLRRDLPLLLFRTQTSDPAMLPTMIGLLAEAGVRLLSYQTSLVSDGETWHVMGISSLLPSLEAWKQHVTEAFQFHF
# T2: GST-PHGDH (UniProt O43175 1-533)
# T2 construct: also called recombinant GST-PHGDH; source: E. coli BL21 DE3, purified
# T2 sequence (looked up): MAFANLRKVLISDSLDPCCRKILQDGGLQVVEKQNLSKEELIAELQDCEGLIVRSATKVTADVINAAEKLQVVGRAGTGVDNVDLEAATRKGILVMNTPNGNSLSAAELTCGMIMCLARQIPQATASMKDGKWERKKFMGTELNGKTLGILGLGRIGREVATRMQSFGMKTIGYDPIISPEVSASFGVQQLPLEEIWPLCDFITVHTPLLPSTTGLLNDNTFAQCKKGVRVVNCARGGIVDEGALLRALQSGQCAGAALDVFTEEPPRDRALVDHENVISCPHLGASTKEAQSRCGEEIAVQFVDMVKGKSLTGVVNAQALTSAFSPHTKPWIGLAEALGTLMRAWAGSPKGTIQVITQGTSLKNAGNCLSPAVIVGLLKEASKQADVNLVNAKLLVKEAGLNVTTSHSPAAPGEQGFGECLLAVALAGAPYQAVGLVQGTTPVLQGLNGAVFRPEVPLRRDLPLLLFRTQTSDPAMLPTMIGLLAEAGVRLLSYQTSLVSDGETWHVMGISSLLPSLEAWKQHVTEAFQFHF
# B1: GST-ASS1 (natural protein, human, UniProt P00966 1-412, looked up)
# chain: MSSKGSVVLAYSGGLDTSCILVWLKEQGYDVIAYLANIGQKEDFEEARKKALKLGAKKVFIEDVSREFVEEFIWPAIQSSALYEDRYLLGTSLARPCIARKQVEIAQREGAKYVSHGATGKGNDQVRFELSCYSLAPQIKVIAPWRMPEFYNRFKGRNDLMEYAKQHGIPIPVTPKNPWSMDENLMHISYEAGILENPKNQAPPGLYTKTQDPAKAPNTPDILEIEFKKGVPVKVTNVKDGTTHQTSLELFMYLNEVAGKHGVGRIDIVENRFIGMKSRGIYETPAGTILYHAHLDIEAFTMDREVRKIKQGLGLKFAELVYTGFWHSPECEFVRHCIAKSQERVEGKVQVSVLKGQVYILGRESPLSLYNEELVSMNVQGDYEPTDATGFININSLRLKEYHRLQSKVTAK
# notes: also called recombinant GST-ASS1; source: E. coli BL21 DE3, purified
# Key:
# Details in all cases: both partners purified
# His-PHGDH = molecular target: T1, His-PHGDH; experiment: pull-down; purified GST-ASS1 immobilised on MagneGST Glutathione Particles; purified His-PHGDH or its truncated forms added overnight at 4 °C; washed with PBST; western blot; GST as negative control
# GST-PHGDH = molecular target: T2, GST-PHGDH; experiment: pull-down; purified GST-PHGDH immobilised on MagneGST Glutathione Particles; purified His-ASS1 added overnight at 4 °C; washed with PBST; western blot; GST as negative control
# GST-ASS1 = molecular target: B1; experiment: pull-down; purified GST-ASS1 immobilised on MagneGST Glutathione Particles; purified His-PHGDH or its truncated forms added overnight at 4 °C; washed with PBST; western blot; GST as negative control
binder,measurement,setting,value
B1,binding result,His-PHGDH,binds
"His-ASS1 (natural protein, human, UniProt P00966 1-412, looked up, also called recombinant His-ASS1; source: E. coli BL21 DE3, purified) MSSKGSVVLAYSGGLDTSCILVWLKEQGYDVIAYLANIGQKEDFEEARKKALKLGAKKVFIEDVSREFVEEFIWPAIQSSALYEDRYLLGTSLARPCIARKQVEIAQREGAKYVSHGATGKGNDQVRFELSCYSLAPQIKVIAPWRMPEFYNRFKGRNDLMEYAKQHGIPIPVTPKNPWSMDENLMHISYEAGILENPKNQAPPGLYTKTQDPAKAPNTPDILEIEFKKGVPVKVTNVKDGTTHQTSLELFMYLNEVAGKHGVGRIDIVENRFIGMKSRGIYETPAGTILYHAHLDIEAFTMDREVRKIKQGLGLKFAELVYTGFWHSPECEFVRHCIAKSQERVEGKVQVSVLKGQVYILGRESPLSLYNEELVSMNVQGDYEPTDATGFININSLRLKEYHRLQSKVTAK",binding result,GST-PHGDH,binds
"PHGDH N-314 (catalytic domain) (domain or fragment, UniProt O43175 1-314, looked up, also called catalytic domain of PHGDH; source: E. coli BL21 DE3, purified) MAFANLRKVLISDSLDPCCRKILQDGGLQVVEKQNLSKEELIAELQDCEGLIVRSATKVTADVINAAEKLQVVGRAGTGVDNVDLEAATRKGILVMNTPNGNSLSAAELTCGMIMCLARQIPQATASMKDGKWERKKFMGTELNGKTLGILGLGRIGREVATRMQSFGMKTIGYDPIISPEVSASFGVQQLPLEEIWPLCDFITVHTPLLPSTTGLLNDNTFAQCKKGVRVVNCARGGIVDEGALLRALQSGQCAGAALDVFTEEPPRDRALVDHENVISCPHLGASTKEAQSRCGEEIAVQFVDMVKGKSLTG",binding result,GST-ASS1,binds

# — article PMC11074131, “ASS1 inhibits triple-negative breast cancer by regulating PHGDH stability and de novo serine synthesis” (Cell Death & Disease, 2024)
